Molecular target: gp120 (strain not stated)
Test: competitive ELISA

“CD4M8 (double mutant of CD4M3: Gln20Ala, Thr25Ala) (designed binder)” was tested, and the fold increase in binding affinity over CD4M3 was over 10 fold.

Reference: patent publication US20060073576A1
